These results are taken from patent US5599792A, “Bone-stimulating, non-vasoactive parathyroid hormone variants” (Allelix Biopharmaceuticals Inc., priority 1994, dated 1997).

Sequences and labels used below:
B1: [Val^8 Leu^18 ]hPTH (protein, UniProt P01270 32-115, looked up, variant M8V M18L)
Parathyroid hormone: SVSEIQLVHNLGKHLNSLERVEWLRKKLQDVHNFVALGAPLAPRDAGSQRPRKKEDNVLVESHEKSLGEADKADVNVLTKAKSQ
modifications: Parathyroid hormone
B2: [Ala^8 ]hPTH (protein, UniProt P01270 32-115, looked up, variant M8A)
Parathyroid hormone: SVSEIQLAHNLGKHLNSMERVEWLRKKLQDVHNFVALGAPLAPRDAGSQRPRKKEDNVLVESHEKSLGEADKADVNVLTKAKSQ
modifications: Parathyroid hormone
B3: [Cys^8 Leu^18 ]hpTH (protein, UniProt P01270 32-115, looked up, variant M8C M18L)
Parathyroid hormone: SVSEIQLCHNLGKHLNSLERVEWLRKKLQDVHNFVALGAPLAPRDAGSQRPRKKEDNVLVESHEKSLGEADKADVNVLTKAKSQ
B4: [Lys^8 Leu^18 ]: structurally related human PTH variant presented for comparison; Met8 replaced by Lys, Leu at 18 (protein, UniProt P01270 32-115, looked up, variant M8K M18L)
Parathyroid hormone: SVSEIQLKHNLGKHLNSLERVEWLRKKLQDVHNFVALGAPLAPRDAGSQRPRKKEDNVLVESHEKSLGEADKADVNVLTKAKSQ
modifications: Parathyroid hormone
B5: [Cys^8 ]hPTH (protein, UniProt P01270 32-115, looked up, variant M8C)
Parathyroid hormone: SVSEIQLCHNLGKHLNSMERVEWLRKKLQDVHNFVALGAPLAPRDAGSQRPRKKEDNVLVESHEKSLGEADKADVNVLTKAKSQ

The test relates to rat osteosarcoma cells of the UMR line (UMR-106), adenylate cyclase activity. Nature of the test: UMR-106 based adenylate cyclase assay (cAMP formation). The format is cell-based. The following applies: UMR-106 cells, radiometric cAMP formation; read-out: EC50 (concentration of PTH or variant effective for half-maximal stimulation of adenylate cyclase activity). The source says: In the present specification, "bone stimulating activity" is defined in the context of the osetosarcoma-based adenylate cyclase assay employed conventionally in the art. Briefly, this assay provides an in vitro determination of the extent to which PTH stimulates adenylate cyclase activity in rat osteosarcoma cells of the `UMR` lineage, and thus provides an indication of PTH effects on bone tissue in vivo. Protocols for conducting the assay have been described by Rodan et al, 1983, J. Clin. Invest., 72:1511 (in which the osteosaracoma cells of the ROS lineage are employed) and by Rabbani et al, 1988, Endocrinol., 123:2709 (which employs the line UMR-106).
Thawed or fresh samples of human PTH(1-84) and of PTH variants obtained as described above were then evaluated for biological activity in a UMR-106 based adenylate cyclase assay and the protocol as described by Rabbini et al, 1988, Endocrinology, 123:2709, which is incorporated herein by reference. As noted, rat osteosarcoma cells of the UMR line are stimulated by PTH to produce adenylate cyclase, an enzyme which catalyzes intracellular conversion of ATP to its cylic monophosphate analogue, cAMP. In this assay therefore, PTH activity is determined by assaying radiometrically the formation of cAMP in PTH-stimulated UMR cells. The results of the assays, expressed in terms of EC50 (concentration of PTH or variant effective for half-maximal stimulation of adenylate cyclase activity), are presented in Table 1.
For the molecule human PTH(1-84), the EC50 was determined as 2 nM.

As for B1, the EC50 stood at 110 nM.

As to B2, the EC50 is 1200 nM.

For B3, the EC50 is 200 nM.

As for B4, the EC50 was more than 5000 nM.

With B5, the EC50 was 400 nM.
